Assay results: FireProtDB (doi:10.1021/bi0015717)
Where “and” joins values, the source holds several entries; their conditions need not be identical. Equal values may be shown once.

B1: Lysozyme C, P61626 (parent)
chain: MKALIVLGLVLLSVTVQGKVFERCELARTLKRLGMDGYRGISLANWMCLAKWESGYNTRATNYNAGDRSTDYGIFQINSRYWCNDGKTPGAVNACHLSCSALLQDNIADAVACAKRVVRDPQGIRAWVAWRNRCQNRDVRQYVQGCGV

Variants of: B1
Details: Homo sapiens; pH 2.6; Thermal; DSC; glycine-HCl 0.05 M; reversible: yes; structure 1LZ1; whole UniProt chain shown

Row | Variant | Tm [°C] | unfolding enthalpy (calorimetric) [kcal/mol]
1 | MKALIVLGLVLLSVTVQGKVFERCELARTLKRLGMDGYRGISLANWMCLAKWESGYNTRATNYNAGDRSTDYGIFQINSRYWCNDGKTPGAVNACHLSCSALLQDNIADAVACAKRVVRDPQGIRAWGAWRNRCQNRDVRQYVQGCGV [V128G] | 64.6 | 99.9

Same assay, conditions: Homo sapiens; pH 2.7; 64.9 °C; Thermal; DSC; glycine-HCl 0.05 M; reversible: yes; structure 1LZ1; whole UniProt chain shown

Row | Variant | ddG of mutation (higher = less stable) [kcal/mol]
2 | MKALIVLGLVLLSVTVQGKVFERCELARTLKRLGMDGYRGISLANWMCLAKWESGYNTRATNYNAGDRSTDYGIFQINSRYWCNDGKTPGAVNACHLSCSALLQDNIADAVACAKRVVRDPQGIRAWGAWRNRCQNRDVRQYVQGCGV [V128G] | -0.48
3 | MKALIVLGLVLLSVTVQGKVFERCELARTLKRLGMDGYRGISLANWMCLAKWESGYNTRATNYNAGDRSTDYGIFQINSRYWCNDGKTPGAVNACHLSCSALLQDNIADAVACAKRVVRDPQGIRAWIAWRNRCQNRDVRQYVQGCGV [V128I] | -0.86
4 | MKALIVLGLVLLSVTVQGKGFERCELARTLKRLGMDGYRGISLANWMCLAKWESGYNTRATNYNAGDRSTDYGIFQINSRYWCNDGKTPGAVNACHLSCSALLQDNIADAVACAKRVVRDPQGIRAWVAWRNRCQNRDVRQYVQGCGV [V20G] | 2.29

Same assay, conditions: Homo sapiens; pH 2.7; Thermal; DSC; glycine-HCl 0.05 M; reversible: yes; structure 1LZ1; whole UniProt chain shown

Row | Variant | Tm | change of melting temperature, mutant - wild type (higher = more stable) [°C] | heat capacity change of unfolding [kcal/mol/K] | unfolding enthalpy (calorimetric)
5 | MKALIVLGLVLLSVTVQGKVFERCELARTLKRLGMDGYRGISLANWMCLAKWESGYNTRATNYNAGDRSTDYGIFQINSRYWCNDGKTPGAVNACHLSCSALLQDNIADAVACAKRVVRDPQGIRAWGAWRNRCQNRDVRQYVQGCGV [V128G] | 66.5 °C and 64.9 °C | 1.6 | 1.82 | 99.9 kcal/mol
6 | MKALIVLGLVLLSVTVQGKVFERCELARTLKRLGMDGYRGISLANWMCLAKWESGYNTRATNYNAGDRSTDYGIFQINSRYWCNDGKTPGAVNACHLSCSALLQDNIADAVACAKRVVRDPQGIRAWIAWRNRCQNRDVRQYVQGCGV [V128I] | 67.3 °C and 67.6 °C and 64.9 °C | 2.7 | 1.65 | 111 kcal/mol and 107 kcal/mol
7 | MKALIVLGLVLLSVTVQGKGFERCELARTLKRLGMDGYRGISLANWMCLAKWESGYNTRATNYNAGDRSTDYGIFQINSRYWCNDGKTPGAVNACHLSCSALLQDNIADAVACAKRVVRDPQGIRAWVAWRNRCQNRDVRQYVQGCGV [V20G] |  | -7.5 | 1.31 | 107 kcal/mol

Same assay, conditions: Homo sapiens; pH 2.94; Thermal; DSC; glycine-HCl 0.05 M; reversible: yes; structure 1LZ1; whole UniProt chain shown

Row | Variant | Tm [°C] | unfolding enthalpy (calorimetric) [kcal/mol]
8 | MKALIVLGLVLLSVTVQGKVFERCELARTLKRLGMDGYRGISLANWMCLAKWESGYNTRATNYNAGDRSTDYGIFQINSRYWCNDGKTPGAVNACHLSCSALLQDNIADAVACAKRVVRDPQGIRAWGAWRNRCQNRDVRQYVQGCGV [V128G] | 70.6 | 110

Same assay, conditions: Homo sapiens; pH 3.11; Thermal; DSC; glycine-HCl 0.05 M; reversible: yes; structure 1LZ1; whole UniProt chain shown

Row | Variant | Tm [°C] | unfolding enthalpy (calorimetric) [kcal/mol]
9 | MKALIVLGLVLLSVTVQGKVFERCELARTLKRLGMDGYRGISLANWMCLAKWESGYNTRATNYNAGDRSTDYGIFQINSRYWCNDGKTPGAVNACHLSCSALLQDNIADAVACAKRVVRDPQGIRAWGAWRNRCQNRDVRQYVQGCGV [V128G] | 73.4 | 115

Same assay, conditions: Homo sapiens; pH 3.3; Thermal; DSC; glycine-HCl 0.05 M; reversible: yes; structure 1LZ1; whole UniProt chain shown

Row | Variant | Tm [°C] | unfolding enthalpy (calorimetric) [kcal/mol]
10 | MKALIVLGLVLLSVTVQGKVFERCELARTLKRLGMDGYRGISLANWMCLAKWESGYNTRATNYNAGDRSTDYGIFQINSRYWCNDGKTPGAVNACHLSCSALLQDNIADAVACAKRVVRDPQGIRAWGAWRNRCQNRDVRQYVQGCGV [V128G] | 76.6 | 122

Same assay, conditions: Homo sapiens; pH 2.53; Thermal; DSC; glycine-HCl 0.05 M; reversible: yes; structure 1LZ1; whole UniProt chain shown

Row | Variant | Tm [°C] | unfolding enthalpy (calorimetric) [kcal/mol]
11 | MKALIVLGLVLLSVTVQGKVFERCELARTLKRLGMDGYRGISLANWMCLAKWESGYNTRATNYNAGDRSTDYGIFQINSRYWCNDGKTPGAVNACHLSCSALLQDNIADAVACAKRVVRDPQGIRAWIAWRNRCQNRDVRQYVQGCGV [V128I] | 64.9 | 107

Same assay, conditions: Homo sapiens; pH 2.9; Thermal; DSC; glycine-HCl 0.05 M; reversible: yes; structure 1LZ1; whole UniProt chain shown

Row | Variant | Tm [°C] | unfolding enthalpy (calorimetric) [kcal/mol]
12 | MKALIVLGLVLLSVTVQGKVFERCELARTLKRLGMDGYRGISLANWMCLAKWESGYNTRATNYNAGDRSTDYGIFQINSRYWCNDGKTPGAVNACHLSCSALLQDNIADAVACAKRVVRDPQGIRAWIAWRNRCQNRDVRQYVQGCGV [V128I] | 70.9 | 117

Same assay, conditions: Homo sapiens; pH 3.13; Thermal; DSC; glycine-HCl 0.05 M; reversible: yes; structure 1LZ1; whole UniProt chain shown

Row | Variant | Tm [°C] | unfolding enthalpy (calorimetric) [kcal/mol]
13 | MKALIVLGLVLLSVTVQGKVFERCELARTLKRLGMDGYRGISLANWMCLAKWESGYNTRATNYNAGDRSTDYGIFQINSRYWCNDGKTPGAVNACHLSCSALLQDNIADAVACAKRVVRDPQGIRAWIAWRNRCQNRDVRQYVQGCGV [V128I] | 74.9 | 123

Same assay, conditions: Homo sapiens; pH 3.23; Thermal; DSC; glycine-HCl 0.05 M; reversible: yes; structure 1LZ1; whole UniProt chain shown

Row | Variant | Tm [°C] | unfolding enthalpy (calorimetric) [kcal/mol]
14 | MKALIVLGLVLLSVTVQGKVFERCELARTLKRLGMDGYRGISLANWMCLAKWESGYNTRATNYNAGDRSTDYGIFQINSRYWCNDGKTPGAVNACHLSCSALLQDNIADAVACAKRVVRDPQGIRAWIAWRNRCQNRDVRQYVQGCGV [V128I] | 76.8 | 127

Same assay, conditions: Homo sapiens; pH 2.65; Thermal; DSC; glycine-HCl 0.05 M; reversible: yes; structure 1LZ1; whole UniProt chain shown

Row | Variant | Tm [°C] | unfolding enthalpy (calorimetric) [kcal/mol]
15 | MKALIVLGLVLLSVTVQGKGFERCELARTLKRLGMDGYRGISLANWMCLAKWESGYNTRATNYNAGDRSTDYGIFQINSRYWCNDGKTPGAVNACHLSCSALLQDNIADAVACAKRVVRDPQGIRAWVAWRNRCQNRDVRQYVQGCGV [V20G] | 56.6 | 95.6

Same assay, conditions: Homo sapiens; pH 2.83; Thermal; DSC; glycine-HCl 0.05 M; reversible: yes; structure 1LZ1; whole UniProt chain shown

Row | Variant | Tm [°C] | unfolding enthalpy (calorimetric) [kcal/mol]
16 | MKALIVLGLVLLSVTVQGKGFERCELARTLKRLGMDGYRGISLANWMCLAKWESGYNTRATNYNAGDRSTDYGIFQINSRYWCNDGKTPGAVNACHLSCSALLQDNIADAVACAKRVVRDPQGIRAWVAWRNRCQNRDVRQYVQGCGV [V20G] | 59.5 | 99.7

Same assay, conditions: Homo sapiens; pH 3.08; Thermal; DSC; glycine-HCl 0.05 M; reversible: yes; structure 1LZ1; whole UniProt chain shown

Row | Variant | Tm [°C] | unfolding enthalpy (calorimetric) [kcal/mol]
17 | MKALIVLGLVLLSVTVQGKGFERCELARTLKRLGMDGYRGISLANWMCLAKWESGYNTRATNYNAGDRSTDYGIFQINSRYWCNDGKTPGAVNACHLSCSALLQDNIADAVACAKRVVRDPQGIRAWVAWRNRCQNRDVRQYVQGCGV [V20G] | 63.8 | 105

Same assay, conditions: Homo sapiens; pH 3.19; Thermal; DSC; glycine-HCl 0.05 M; reversible: yes; structure 1LZ1; whole UniProt chain shown

Row | Variant | Tm [°C] | unfolding enthalpy (calorimetric) [kcal/mol]
18 | MKALIVLGLVLLSVTVQGKGFERCELARTLKRLGMDGYRGISLANWMCLAKWESGYNTRATNYNAGDRSTDYGIFQINSRYWCNDGKTPGAVNACHLSCSALLQDNIADAVACAKRVVRDPQGIRAWVAWRNRCQNRDVRQYVQGCGV [V20G] | 65.7 | 108

Same assay, conditions: Homo sapiens; pH 3.4; Thermal; DSC; glycine-HCl 0.05 M; reversible: yes; structure 1LZ1; whole UniProt chain shown

Row | Variant | Tm [°C] | unfolding enthalpy (calorimetric) [kcal/mol]
19 | MKALIVLGLVLLSVTVQGKGFERCELARTLKRLGMDGYRGISLANWMCLAKWESGYNTRATNYNAGDRSTDYGIFQINSRYWCNDGKTPGAVNACHLSCSALLQDNIADAVACAKRVVRDPQGIRAWVAWRNRCQNRDVRQYVQGCGV [V20G] | 69 | 112
